How the values were obtained:
[1] = biological target: T1, OCT6-POU (mouse, UniProt P21952 245-396); experiment: EMSA
T1 sequence: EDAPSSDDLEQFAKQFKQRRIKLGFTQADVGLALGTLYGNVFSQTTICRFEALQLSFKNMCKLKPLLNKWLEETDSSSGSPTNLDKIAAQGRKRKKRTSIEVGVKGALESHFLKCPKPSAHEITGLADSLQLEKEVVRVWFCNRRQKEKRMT

[2] = biological target: T2, BRN2-POU (mouse, UniProt P31360 264-415); experiment: EMSA
T2 sequence: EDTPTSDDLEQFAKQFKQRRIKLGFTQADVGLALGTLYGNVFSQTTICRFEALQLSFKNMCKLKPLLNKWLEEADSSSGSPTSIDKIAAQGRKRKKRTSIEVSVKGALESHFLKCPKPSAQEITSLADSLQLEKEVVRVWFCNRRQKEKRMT

[3] = biological target: T3, SOX18-HMG (79 aa) (Mus musculus, UniProt P43680 77-155); experiment: X-ray crystal structure
[4] = biological target: T1, OCT6-POU; experiment: EMSA competition
[5] = biological target: T4, ESRRB (DNA binding domain) (mouse, UniProt Q61539 100-186); experiment: EMSA and competition
T4 sequence: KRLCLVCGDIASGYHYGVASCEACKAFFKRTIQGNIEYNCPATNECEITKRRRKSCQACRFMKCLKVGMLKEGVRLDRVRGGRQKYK

[6] = biological target: PAX9 (mouse, UniProt P47242 4-130); experiment: EMSA and competition
[7] = biological target: T3, SOX18-HMG (79 aa); experiment: ITC

T3 sequence (P43680 77-155): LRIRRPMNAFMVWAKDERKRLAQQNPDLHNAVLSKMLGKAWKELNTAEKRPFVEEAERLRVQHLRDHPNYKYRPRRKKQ
Chain of PAX9 (P47242 4-130): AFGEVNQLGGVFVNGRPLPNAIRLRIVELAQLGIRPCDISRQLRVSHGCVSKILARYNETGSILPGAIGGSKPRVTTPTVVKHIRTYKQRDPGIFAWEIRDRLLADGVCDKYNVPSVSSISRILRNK

B1: Cy5-Pore (dsDNA)
DNA 1: CACATTTGAAAGGCAAATGGAG
DNA 2: CTCCATTTGCCTTTCAAATGTG
[1]
  binding result: binds
[2]
  binding result: binds

B2: Prox1 crystal DNA, 16 bp with CG overhangs (dsDNA)
DNA 1: CACTAGCATTGTCTGGG
DNA 2: GCCCAGACAATGCTAGT
[3]
  binding result: binds

B3: UL-More (dsDNA)
DNA 1: TCCTCATGCATATGCATGAGGA
DNA 2: TCCTCATGCATATGCATGAGGA
[4]
  binding result: binds

B4: Esrrb element (Cy5/UL) (dsDNA)
DNA 1: TGGTGACCTTGGCT
DNA 2: AGCCAAGGTCACCA
[5]
  binding result: binds

B5: Pax element (Cy5/UL) (dsDNA)
DNA 1: AAGCATTTTCACGCATGAGTGCACAG
DNA 2: CTGTGCACTCATGCGTGAAAATGCTT
[6]
  binding result: binds

B6: Prox1 15 bp (NAT decoy when unlabelled) (dsDNA)
DNA 1: CTAGCATTGTCTGGG
DNA 2: CCCAGACAATGCTAG
[7]
  Ka: 2.47e+06 M⁻¹

From PMC4856986
